Values of other authors, collected in publication PMC4755228.

Molecular target: CD38 (Homo sapiens) (UniProt P28907)
Assay: BIAcore SPR

Substance: daratumumab
- Kd: 4.36 nM
